# Test results taken from patent US10189887B2, “Polypeptides and uses thereof for reducing CD95-mediated cell motility” (INSERM (INSTITUT NATIONAL DE LA SANTÉ ET DE LA RECHERCHE …, priority 2014, dated 2019).
# Experiments:
# Type in all cases: cell-based
# CD95/PLCγ1 = biological target: T1, CD95/PLCγ1 (Homo sapiens, UniProt P19174); test: PLCγ1 recruitment to CD95 (immunoprecipitation and immunoblotting)
# T1 construct: endogenous in cells; host or cells: CEM (human leukemic T-cell line)
# T1 sequence (P19174 2-1290 limits assumed): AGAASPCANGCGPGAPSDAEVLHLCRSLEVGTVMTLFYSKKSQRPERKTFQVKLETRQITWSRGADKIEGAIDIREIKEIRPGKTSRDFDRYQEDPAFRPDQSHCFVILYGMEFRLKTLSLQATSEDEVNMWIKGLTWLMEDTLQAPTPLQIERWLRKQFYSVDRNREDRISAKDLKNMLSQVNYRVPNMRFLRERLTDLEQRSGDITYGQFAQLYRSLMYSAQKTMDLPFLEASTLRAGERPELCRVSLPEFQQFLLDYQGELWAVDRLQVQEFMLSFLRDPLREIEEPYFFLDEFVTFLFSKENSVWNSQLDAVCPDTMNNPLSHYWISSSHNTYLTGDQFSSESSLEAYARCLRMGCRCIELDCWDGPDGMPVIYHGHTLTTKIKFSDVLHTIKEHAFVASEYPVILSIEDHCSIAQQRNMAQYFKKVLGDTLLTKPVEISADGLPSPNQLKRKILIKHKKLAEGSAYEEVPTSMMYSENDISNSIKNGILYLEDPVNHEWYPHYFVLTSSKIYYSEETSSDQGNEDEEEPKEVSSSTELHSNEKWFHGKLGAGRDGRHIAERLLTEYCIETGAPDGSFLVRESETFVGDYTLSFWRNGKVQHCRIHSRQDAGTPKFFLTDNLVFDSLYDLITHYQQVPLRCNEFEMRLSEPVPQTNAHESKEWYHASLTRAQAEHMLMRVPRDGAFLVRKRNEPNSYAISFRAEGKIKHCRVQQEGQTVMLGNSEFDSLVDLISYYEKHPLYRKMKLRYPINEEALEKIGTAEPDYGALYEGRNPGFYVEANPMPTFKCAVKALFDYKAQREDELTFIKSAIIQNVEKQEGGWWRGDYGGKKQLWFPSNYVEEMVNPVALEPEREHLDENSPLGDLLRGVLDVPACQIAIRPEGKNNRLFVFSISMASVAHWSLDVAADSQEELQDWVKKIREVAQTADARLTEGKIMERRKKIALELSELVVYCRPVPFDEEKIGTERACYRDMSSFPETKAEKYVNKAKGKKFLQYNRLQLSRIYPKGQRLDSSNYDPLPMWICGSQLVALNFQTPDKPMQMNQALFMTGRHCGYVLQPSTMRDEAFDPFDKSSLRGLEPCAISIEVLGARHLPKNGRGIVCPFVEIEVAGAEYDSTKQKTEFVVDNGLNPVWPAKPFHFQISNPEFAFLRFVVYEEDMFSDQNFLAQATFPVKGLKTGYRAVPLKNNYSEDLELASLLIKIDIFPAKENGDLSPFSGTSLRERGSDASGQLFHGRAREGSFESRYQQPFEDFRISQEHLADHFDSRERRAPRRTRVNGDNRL
# Procedure: T-cells (5×10^7 cells per condition) were stimulated with Ig-CD95L or cl-CD95L (100 ng/mL) for indicated times at 37° C. Cells were lysed, incubated with APO1.3 (1 ug/mL) for 15 min at 4° C. and CD95 was immunoprecipitated using A/G protein-coupled magnetic beads (Ademtech, Pessac, France) for 1 h. After extensive washing, the immune complex was resolved by SDS-PAGE and immunoblotting was performed with indicated antibodies.
# Cells were lyzed for 30 minutes at 4° C. in lysis buffer (25 mM HEPES pH 7.4, 1% v/v Triton X-100, 150 mM NaCl, 2 mM EGTA supplemented with a mix of protease inhibitors (Sigma-Aldrich)). Protein concentration was determined by the bicinchoninic acid method (PIERCE, Rockford, Ill., USA) according to the manufacturer's protocol. Proteins were separated on a 12% SDS-PAGE and transferred to a nitrocellulose membrane (GE Healthcare, Buckinghamshire, England). The membrane was blocked 15 minutes with TBST (50 mM Tris, 160 mM NaCl, 0.05% v/v Tween 20, pH 7.8) containing 5% w/v dried skimmed milk (TBSTM). Primary antibody was incubated overnight at 4° C. in TBSTM. The membrane was intensively washed (TBST) and then the peroxydase-labeled anti-rabbit or anti-mouse (SouthernBiotech, Birmingham, Ala., US) was added for 45 minutes. The proteins were visualized with the enhanced chemiluminescence substrate kit (ECL, GE Healthcare).
# [1] = test system: CD95-mediated Ca^2+ response; test: Calcium response to cl-CD95L in MEF; conditions: MEFs pre-incubated 1 hr, 10 μM peptide; 100 ng/ml cl-CD95L
# Procedure: (§1) Cells were loaded with Fura2-AM (1 μM) at resting temperature for 30 min in Hank's Balanced Salt Solution (HBSS). After washing with HBSS, the cells were incubated for 15 min in the absence of Fura2-AM to complete de-esterification of the dye. Cells were placed in a thermostated chamber (37° C.) of an inverted epifluorescence microscope (Olympus IX70) equipped with a ×40, UApo/340-1.15 W water-immersion objective (Olympus), and fluorescence micrograph images were captured at 510 nm and at 12-bit resolution by a fast-scan camera (CoolSNAP fx Monochrome, Photometrics). To minimize UV light exposure, 4×4 binning function was used. Fura2-AM was alternately excited at 340 and 380 nm, and ratios of the resulting images (excitations at 340 and 380 nm and emission filter at 520 nm) were produced at constant intervals (5 s or 10 s according to the stimulus). […] Fluorescent images were pseudocolored using the IMD display mode in MetaFluor and assembled without further manipulation in Photoshop (Adobe). Raw data were acquired with MetaFluor and graphed in Origin (OriginLab). […]
# [2] = test system: CD95-mediated Ca^2+ response; test: Calcium response to cl-CD95L in MDA MB 231 cells; conditions: MDA MB 231 pre-incubated 1 hr, 10 μM peptide; 100 ng/ml cl-CD95L
# Procedure: as §1
substance,measurement,setting,value
TAT-CID: cell penetrating peptide linking the 36-amino acid-stretch of CID (CD95 residues 175 to 210) to the HIV-TAT sequence; SEQ ID NO: 6 (RKKRRQRRRKRKEVQKTCRKHRKENQGSHESPTLNPETVAINLSD; TAT-CID),PLCγ1 recruitment to CD95,"CD95/PLCγ1; T cell lines Jurkat and CEM pre-incubated 1 h with 10 μM, cl-CD95L 100 ng/mL",impaired PLCγ1 recruitment
same,PLCγ1 binding to CD95,"CD95/PLCγ1; activated T lymphocytes from healthy subjects, pre-incubation",inhibited the PLCγ1 binding to CD95
same,initial phase of the calcium response to cl-CD95L,[1],blocked it
same,calcium response to cl-CD95L,[2],completely abolished the calcium response
